From patent publication US20220267462A1 (HARPOON THERAPEUTICS, published 2022) come the findings set out here.

What all share (assay): colorimetric ELISA
A general note: An ELISA detects its analyte on a solid surface through an enzyme-linked reagent.

For one assay, the target named is T1, cynomolgus EpCAM protein (cynomolgus, UniProt Q1WER1 27-265 (rhesus entry), limits assumed, biotinylated in the Octet assays (site not stated)).
T1 construct: also called cy EpCAM; biotinylated cynomolgus EpCAM protein
T1 sequence: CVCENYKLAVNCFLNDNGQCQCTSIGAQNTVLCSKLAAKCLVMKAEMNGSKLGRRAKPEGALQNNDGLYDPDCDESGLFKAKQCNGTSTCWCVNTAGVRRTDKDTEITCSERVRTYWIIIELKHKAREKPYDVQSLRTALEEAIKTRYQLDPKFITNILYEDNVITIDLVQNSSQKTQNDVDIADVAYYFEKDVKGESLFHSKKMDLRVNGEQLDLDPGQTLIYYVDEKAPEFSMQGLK
An excerpt:
(§1) A phage display library for expression of heavy variable antibody domains was constructed from circulating B cells. See van der Linden, de Geus, Stok, Bos, van Wassenaar, Verrips, and Frenken. 2000. J Immunol Methods 240:185-195.

Another assay concerns the target T2, human EpCAM protein (human, UniProt P16422 24-265, biotinylated in the Octet assays (site not stated)).
T2 construct: also called hu EpCAM; biotinylated human EpCAM protein
T2 sequence: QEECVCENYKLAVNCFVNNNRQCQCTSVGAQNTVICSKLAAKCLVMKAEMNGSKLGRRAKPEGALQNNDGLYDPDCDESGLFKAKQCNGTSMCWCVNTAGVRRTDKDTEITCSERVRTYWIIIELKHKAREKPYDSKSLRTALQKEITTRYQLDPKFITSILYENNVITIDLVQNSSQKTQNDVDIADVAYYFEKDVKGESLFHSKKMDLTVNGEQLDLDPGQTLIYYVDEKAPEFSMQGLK
Excerpt: as §1

The target of assay [1] is cynomolgus EpCAM protein (cynomolgus).

B1: EPL86 (VHH)
VHH: QVQLQESGGGLVQPGGSLRLSCAASGFTFSDWAMSWVRQAPGKGLEWVSGIHYGDHTTHYADFVKGRFTISRDDAKNTLYLQMNSLKPEDTAVYYCARGSTKGQGTQVTVSS
With B1, the “Cynomolgus EpCAM/Control” value with cynomolgus EpCAM protein was determined as 31. Further, the “Human EpCAM/Control” value with human EpCAM protein is 8.

B2: EPL153 (VHH)
VHH: QVQLQESGGGLVQPGGSLRLSCAASGFTFSDWAMSWVRQAPGKGLEWVSSIHYGDHTTHYADFVKGRFTISRDDAKNTLYLQMNSLKPEDTAVYYCEKGTTRGQGTQVTVSS
On to B2, for which, in the assay with cynomolgus EpCAM protein, the “Cynomolgus EpCAM/Control” value is 21. Besides, in the assay with human EpCAM protein, the “Human EpCAM/Control” value stood at 31.

B3: EPL159 (VHH)
VHH: QVQLQESGGGLVQAGGSLRLSCAASGFAFGNHWMYWYRQAPGRGRELVASISSGGSTNYVDSVKGRFTISRDNARNTVYLQMYSLKPEDTAVYYCGTSDNWGQGTQVTVSS
For B3, in assay [1], the Cynomolgus EpCAM/Control worked out at 2.

B4: EPL129 (VHH)
VHH: QVQLQESGGGLVQAGGSLRLSCAASGFAFGNHWMYWYRQAPGRGRELVASISSGGSTNYVDSVKGRFTISRDNARNTVYLQMYSLRPEDTAVYYCGTSDNWGQGTQVTVSS
Take B4: the “Cynomolgus EpCAM/Control” value with cynomolgus EpCAM protein came out at 29. In addition, in the assay with human EpCAM protein, the “Human EpCAM/Control” value was 20.

B5: EPL13 (VHH)
VHH: QVQLQESGGGLVQPGGSLRLSCAASGFAFGNHWMYWYRQAPGRGRELVASISSGGSTNYVDSVKGRFTISRDNARNTVYLQMYSLKPEDTAVYYCGTSDNWGQGTQVTVSS
Turning to B5, the “Cynomolgus EpCAM/Control” value in the assay with cynomolgus EpCAM protein came out at 23. In addition, the “Human EpCAM/Control” value with human EpCAM protein was 17.

B6: EPL20 (VHH)
VHH: QVQLQESGGGLVQAGGSLKLSCAASGNVFRAATMAWYRQAPEKQREMVATIASGGTTNYADFVKGRFTISRDNAKNTVYLQMNTLKPEDTAVYYCNAGYLTSLGPKNYWGQGTQVTVSS
In the case of B6, the “Cynomolgus EpCAM/Control” value with cynomolgus EpCAM protein came to 4. Besides, the “Human EpCAM/Control” value in the assay with human EpCAM protein came out at 6.

B7: EPL125 (VHH)
VHH: QVQLQESGGGLVQAGGSLRLSCAASGNVFRAATMAWYRQVPEKQREMVATIASGGTTNYADFVKGRFTISRDNAKNTVYLQMNTLKPEDTAVYYCNALYLTSLGPKSYWGQGTQVTVSS
Take B7: in the assay with cynomolgus EpCAM protein, the “Cynomolgus EpCAM/Control” value turned out to be 8. The “Human EpCAM/Control” value in the assay with human EpCAM protein came to 8.

B8: EPL60 (VHH)
VHH: QVQLQESGGGLVQAGGSLRLSCAASEYILSMYRMAWYRQAPGKVRELVADMSSGGTTNYADFVKGRFTISRDNDRNTVYLQMNRLQPEDTAAYYCNVAGRTGPPSYDAFNNWGQGTQVTVSS
On to B8, for which the “Cynomolgus EpCAM/Control” value with cynomolgus EpCAM protein is 33. Besides, in the assay with human EpCAM protein, the “Human EpCAM/Control” value stood at 10.

B9: EPL156 (VHH)
VHH: QVQLQESGGGLVQPGASLRVSCAASEYILSMYRMAWYRQAPGKVRELVADMSSGGTTNYADFVKGRFTISRDNDRNTVYLQMNRLQPEDTAAYYCNVAGRTGPPSYDAFNNWGQGTQVTVSS
Consider B9, for which, in the assay with cynomolgus EpCAM protein, the “Cynomolgus EpCAM/Control” value was determined as 17. In addition, the “Human EpCAM/Control” value with human EpCAM protein was 16.

B10: EPL15 (VHH)
VHH: QVQLQESGGGSVLAGGSLRLSCAASGFTFSSYYMSWVRQAPGKGLEWVSGIHYTGDWTNYADSVKGRFTISRDNAKNELYLEMNNLKPEDTAVYYCARGSDKGQGTQVTVSS
B10: in the assay with cynomolgus EpCAM protein, the “Cynomolgus EpCAM/Control” value amounted to 35. Further, the “Human EpCAM/Control” value with human EpCAM protein was 8.

B11: EPL34 (VHH)
VHH: QVQLQESGGGSVQAGGSLRLSCAASGFTFSSYYMSWVRQAPGKGLEWVSGIHYTGDWTNYADSVKGRFTISRDNAKNELYLEMNNLKPEDTAVYYCARGSDKGQGTQVTVSS
Regarding B11, the “Cynomolgus EpCAM/Control” value in the assay with cynomolgus EpCAM protein amounted to 36. The “Human EpCAM/Control” value with human EpCAM protein was determined as 10.

B12: EPL145 (VHH)
VHH: QVQLQESGGGLVQAGGSLRLSCAASGFIFRAASMGWFRQSPGNERELVATVSSGGFTNYADSVKGRFTISRDNAKNTVYLQMNSLKPEDTAVYFCGATFVRSDGHHTIYGQGTQVTVSS
As to B12, in assay [1], the Cynomolgus EpCAM/Control came out at 2. The “Human EpCAM/Control” value in the assay with human EpCAM protein is 3.
